Data on 14 molecules can be found in patent US20210284709A1 (JUNO THERAPEUTICS, published 2021).

B1: modified version of TCR 14 (TCR)
TCR alpha: ILNVEQSPQSLHVQEGDSTNFTCSFPSSNFYALHWYRWETAKSPEALFVMTLNGDEKKKGRISATLNTKEGYSYLYIKGSQPEDSATYLCASQTGANNLFFGTGTRLTVIPYIQNPDPAVYQLRDSKSSDKSVCLFTDFDSQTNVSQSKDSDVYITDKCVLDMRSMDFKSNSAVAWSNKSDFACANAFNNSIIPEDTFFPSPESSCDVKLVEKSFETDTNLNFQNLSVIGFRILLLKVAGFNLLMTLRLWSS
TCR beta: DVKVTQSSRYLVKRTGEKVFLECVQDMDHENMFWYRQDPGLGLRLIYFSYDVKMKEKGDIPEGYSVSREKKERFSLILESASTNQTSMYLCASTFWGQRRTEAFFGQGTRLTVVEDLNKVFPPEVAVFEPSEAEISHTQKATLVCLATGFFPDHVELSWWVNGKEVHSGVCTDPQPLKEQPALNDSRYCLSSRLRVSATFWQNPRNHFRCQVQFYGLSENDEWTQDRAKPVTQIVSAEAWGRADCGFTSVSYQQGVLSATILYEILLGKATLYAVLVSALVLMAMVKRKDF
B2: TCR 22 (codon-optimized, cysteine-modified) (TCR, V domains shown)
V domain 1: GQNIDQPTEMTATEGAIVQINCTYQTSGFNGLFWYQQHAGEAPTFLSYNVLDGLEEKGRFSSFLSRSKGYSYLLLKELQMKDSASYLCAVRARMDSNYQLIWGAGTKLIIKP
V domain 2: DAGVTQSPTHLIKTRGQHVTLRCSPISGHKSVSWYQQVLGQGPQFIFQYYEKEERGRGNFPDRFSARQFPNYSSELNVNALLLGDSALYLCASSRTENYGYTFGSGTRLTVVE
B3: modified version of TCR 13 (TCR)
TCR alpha: AQSVTQLDSHVSVSEGTPVLLRCNYSSSYSPSLFWYVQHPNKGLQLLLKYTSAATLVKGINGFEAEFKKSETSFHLTKPSAHMSDAAEYFCVVRGGKLIFGQGTELSVKPNIQNPDPAVYQLRDSKSSDKSVCLFTDFDSQTNVSQSKDSDVYITDKCVLDMRSMDFKSNSAVAWSNKSDFACANAFNNSIIPEDTFFPSPESSCDVKLVEKSFETDTNLNFQNLSVIGFRILLLKVAGFNLLMTLRLWSS
TCR beta: GAGVSQSPRYKVAKRGQDVALRCDPISGHVSLFWYQQALGQGPEFLTYFQNEAQLDKSGLPSDRFFAERPEGSVSTLKIQRTQQEDSAVYLCASSPTGTERELFFGEGSRLTVLEDLKNVFPPEVAVFEPSEAEISHTQKATLVCLATGFYPDHVELSWWVNGKEVHSGVCTDPQPLKEQPALNDSRYCLSSRLRVSATFWQNPRNHFRCQVQFYGLSENDEWTQDRAKPVTQIVSAEAWGRADCGFTSESYQQGVLSATILYEILLGKATLYAVLVSALVLMAMVKRKDSRG
B4: TCR 18 (codon-optimized, cysteine-modified) (TCR, V domains shown)
V domain 1: KQEVTQIPAALSVPEGENLVLNCSFTDSAIYNLQWFRQDPGKGLTSLLLIQSSQREQTSGRLNASLDKSSGRSTLYIAASQPGDSATYLCAEGNAGGTSYGKLTFGQGTILTVHP
V domain 2: DVKVTQSSRYLVKRTGEKVFLECVQDMDHENMFWYRQDPGLGLRLIYFSYDVKMKEKGDIPEGYSVSREKKERFSLILESASTNQTSMYLCASSFWGRSNSPLHFGNGTRLTVTE
B5: TCR 23 (codon-optimized, cysteine-modified) (TCR, V domains shown)
V domain 1: AQKITQTQPGMFVQEKEAVTLDCTYDTSDQSYGLFWYKQPSSGEMIFLIYQGSYDEQNATEGRYSLNFQKARKSANLVISASQLGDSAMYFCAMSPPGGSARQLTFGSGTQLTVLP
V domain 2: B4 V domain 2 with F95P, R98Q, S101Q, L103Q, N107D, T112S, V113I, T114L
B6: TCR 17 (codon-optimized, cysteine-modified) (TCR, V domains shown)
V domain 1: AQKITQTQPGMFVQEKEAVTLDCTYDTSDPSYGLFWYKQPSSGEMIFLIYQGSYDQQNATEGRYSLNFQKARKSANLVISASQLGDSAMYFCAMREGRGDKIIFGKGTRLHILP
V domain 2: B4 V domain 2 with F95L, S101Q, L103Q, N107D, T112S, V113I, T114L
B7: TCR 24 (codon-optimized, cysteine-modified) (TCR, V domains shown)
V domain 1: AQKITQTQPGMFVQEKEAVTLDCTYDTSDQSYGLFWYKQPSSGEMIFLIYQGSYDEQNATEGRYSLNFQKARKSANLVISASQLGDSAMYFCAMREGRGDSWGKLQFGAGTQVVVTP
V domain 2: B4 V domain 2 with F95P, W96F, S99G, N100S, S101Y, P102E, L103Q, H104Y, N107P
B8: TCR 27 (codon-optimized, cysteine-modified) (TCR, V domains shown)
V domain 1: DAKTTQPNSMESNEEEPVHLPCNHSTISGTDYIHWYRQLPSQGPEYVIHGLTSNVNNRMASLAIAEDRKSSTLILHRATLRDAAVYYCILRVPPQSGGYQKVTFGTGTKLQVIP
V domain 2: NAGVTQTPKFQVLKTGQSMTLQCAQDMNHNSMYWYRQDPGMGLRLIYYSASEGTTDKGEVPNGYNVSRLNKREFSLRLESAAPSQTSVYFCASSEFGSLNEKLFFGSGTQLSVLE
B9: TCR 21 (codon-optimized, cysteine-modified) (TCR, V domains shown)
V domain 1: AQKITQTQPGMFVQEKEAVTLDCTYDTSDQSYGLFWYKQPSSGEMIFLIYQGSYDEQNATEGRYSLNFQKARKSANLVISASQLGDSAMYFCAMREGRVTGGGNKLTFGTGTQLKVEL
V domain 2: NAGVTQTPKFQVLKTGQSMTLQCAQDMNHNSMYWYRQDPGMGLRLIYYSASEGTTDKGEVPNGYNVSRLNKREFSLRLESAAPSQTSVYFCASRPWGNQNTEAFFGQGTRLTVVE
B10: TCR 30 (codon-optimized, cysteine-modified) (TCR, V domains shown)
V domain 1: DAKTTQPPSMDCAEGRAANLPCNHSTISGNEYVYWYRQIHSQGPQYIIHGLKNNETNEMASLIITEDRKSSTLILPHATLRDTAVYYCIVRGTSVLQGNEKLTFGTGTRLTIIP
V domain 2: EPEVTQTPSHQVTQMGQEVILRCVPISNHLYFYWYRQILGQKVEFLVSFYNNEISEKSEIFDDQFSVERPDGSNFTLKIRSTKLEDSAMYFCASSRQPSSGNTIYFGEGSWLTVVE
B11: TCR 29 (codon-optimized, cysteine-modified) (TCR, V domains shown)
V domain 1: AQKITQTQPGMFVQEKEAVTLDCTYDTSDQSYGLFWYKQPSSGEMIFLIYQGSYDEQNATEGRYSLNFQKARKSANLVISASQLGDSAMYFCAMRLNTGTASKLTFGTGTRLQVTL
V domain 2: DGGITQSPKYLFRKEGQNVTLSCEQNLNHDAMYWYRQDPGQGLRLIYYSQIVNDFQKGDIAEGYSVSREKKESFPLTVTSAQKNPTAFYLCASSPWGRATNEQFFGPGTRLTVLE
B12: TCR 28 (codon-optimized, cysteine-modified) (TCR, V domains shown)
V domain 1: RKEVEQDPGPFNVPEGATVAFNCTYSNSASQSFFWYRQDCRKEPKLLMSVYSSGNEDGRFTAQLNRASQYISLLIRDSKLSDSATYLCVVRGGGTSYGKLTFGQGTILTVHP
V domain 2: DVKVTQSSRYLVKRTGEKVFLECVQDMDHENMFWYRQDPGLGLRLIYFSYDVKMKEKGDIPEGYSVSREKKERFSLILESASTNQTSMYLCASSLWGRSSGNTIYFGEGSWLTVVE
B13: modified version of TCR 5 (TCR, V domains shown)
V domain 1: B7 V domain 1 with R98T, D100T, W102Y, Q106T, A109Q, Q112I, V113L, V114T, T116H
V domain 2: B4 V domain 2 with F95P, R98E, S99T, N100H, S101Q, L103Q, N107D, T112S, V113I, T114L
B14: modified version of TCR 4 (TCR)
TCR alpha: DAKTTQPNSMESNEEEPVHLPCNHSTISGTDYIHWYRQLPSQGPEYVIHGLTSNVNNRMASLAIAEDRKSSTLILHRATLRDAAVYYCILLVIRGTSYGKLTFGQGTILTVHPNIQNPDPAVYQLRDSKSSDKSVCLFTDFDSQTNVSQSKDSDVYITDKCVLDMRSMDFKSNSAVAWSNKSDFACANAFNNSIIPEDTFFPSPESSCDVKLVEKSFETDTNLNFQNLSVIGFRILLLKVAGFNLLMTLRLWSS
TCR beta: DTGVSQDPRHKITKRGQNVTFRCDPISEHNRLYWYRQTLGQGPEFLTYFQNEAQLEKSRLLSDRFSAERPKGSFSTLEIQRTEQGDSAMYLCASSPGGGNTEAFFGQGTRLTVVEDLNKVFPPEVAVFEPSEAEISHTQKATLVCLATGFFPDHVELSWWVNGKEVHSGVCTDPQPLKEQPALNDSRYCLSSRLRVSATFWQNPRNHFRCQVQFYGLSENDEWTQDRAKPVTQIVSAEAWGRADCGFTSVSYQQGVLSATILYEILLGKATLYAVLVSALVLMAMVKRKDF

Where a chain is given by its changes, count along the chain named.

The target of one experiment is T1, HLA-A2/E6(29-38) tetramer (human; HPV 16).
T1 construct: also called E6(29-38) peptide-MHC tetramer; E6 tet
The experiment in a line: flow cytometry, tetramer + anti-CD8; transfected Jurkat-derived cells, CD8+ cells. (Flow cytometry measures light scatter and fluorescence of single cells or particles in a stream.)
Protocol: (§1) For transfection, the CD4+ and CD4+/CD8+ cell mixtures were transiently transfected with TCR-encoding plasmids and 48 hours after transfection, cells were assessed by flow cytometry for (1) binding of the target peptide in the context of an MHC molecule (HLA:A02:01) by staining with an E6(29-38) peptide- or an E7(11-19) peptide-MHC tetramer reagent, and/or (2) CD8+ independent binding of the target by co-staining the tetramer-labeled cells with an anti-CD8 antibody.
For the molecule B1, the “% cells E6 tet+/CD8+ quadrant” value was determined as 38.4% and the “% cells E6 tet+/CD8- quadrant” value was determined as 0.04%.

Turning to B2, the “% cells E6 tet+/CD8+ quadrant” value turned out to be 51.2% and the “% cells E6 tet+/CD8- quadrant” value was 0.14%.

Regarding B3, the “% cells E6 tet+/CD8+ quadrant” value turned out to be 38.6% and the “% cells E6 tet+/CD8- quadrant” value stood at 0.064%.

On to B4, for which the “% cells E6 tet+/CD8+ quadrant” value turned out to be 50.4% and the “% cells E6 tet+/CD8- quadrant” value was 0.045%.

B5: the “% cells E6 tet+/CD8+ quadrant” value was determined as 43.6% and the “% cells E6 tet+/CD8- quadrant” value was 0.18%.

Turning to B6, the “% cells E6 tet+/CD8+ quadrant” value was determined as 34.7% and the “% cells E6 tet+/CD8- quadrant” value came out at 0.17%.

With B7, the “% cells E6 tet+/CD8+ quadrant” value was 29.1% and the “% cells E6 tet+/CD8- quadrant” value is 0.13%.

For the molecule B8, the “% cells E6 tet+/CD8+ quadrant” value stood at 24.5% and the “% cells E6 tet+/CD8- quadrant” value came to 0.02%.

As to B9, the “% cells E6 tet+/CD8+ quadrant” value is 51.6% and the “% cells E6 tet+/CD8- quadrant” value came to 0.22%.

A further experiment addresses T1, HLA-A2/E6(29-38) tetramer. In words: flow cytometry, tetramer + anti-CD8; transfected mix of CD8- and CD8+ Jurkat-derived cells.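 Also: CD4+ and CD4+/CD8+ cell mixtures transiently given TCR plasmids, analysed 48 h post-transfection by flow cytometry with E6(29-38)–HLA-A*02:01 tetramer plus anti-CD8 antibody co-stain.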
Protocol: as §1
With B4, the “% cells E6 tet+/CD8+ quadrant” value was determined as 23.3% and the “% cells E6 tet+/CD8- quadrant” value amounted to 3.61%.

For the molecule B5, the “% cells E6 tet+/CD8+ quadrant” value worked out at 52.5% and the “% cells E6 tet+/CD8- quadrant” value was found to be 22.5%.

Take B6: the “% cells E6 tet+/CD8+ quadrant” value was found to be 36.2% and the “% cells E6 tet+/CD8- quadrant” value amounted to 21.3%.

For B7, the “% cells E6 tet+/CD8+ quadrant” value was found to be 55% and the “% cells E6 tet+/CD8- quadrant” value was 23.5%.

Consider B10, for which the “% cells E6 tet+/CD8+ quadrant” value stood at 31% and the “% cells E6 tet+/CD8- quadrant” value came to 0.74%.

B11: the “% cells E6 tet+/CD8+ quadrant” value amounted to 35.6% and the “% cells E6 tet+/CD8- quadrant” value is 44.5%.

In the case of B8, the “% cells E6 tet+/CD8+ quadrant” value stood at 15.8% and the “% cells E6 tet+/CD8- quadrant” value was 3.5%.

For the molecule B9, the “% cells E6 tet+/CD8+ quadrant” value came to 28.8% and the “% cells E6 tet+/CD8- quadrant” value turned out to be 32.7%.

In the case of B12, the “% cells E6 tet+/CD8+ quadrant” value came to 13.1% and the “% cells E6 tet+/CD8- quadrant” value was 0.15%.

In another experiment the target is HLA-A2/E7(11-19) tetramer (human; HPV 16). The experiment in a line: cell-based or functional assay.
Take B13: the “% CD8+/IC IFNγ+” value was 7.22%.

With B14, the “% CD8+/IC IFNγ+” value was determined as 2.5%.

In a further experiment the target is T1, HLA-A2/E6(29-38) tetramer. The experiment in a line: cell-based or functional assay.
As to B13, the “% CD8+/IC IFNγ+” value is 43.7%.

B14: the “% CD8+/IC IFNγ+” value turned out to be 94.2%.
